# Data reported in PMC3696110, “Hsp70 Oligomerization Is Mediated by an Interaction between the Interdomain Linker and the Substrate-Binding Domain” (PLoS ONE, 2013).
# “And” between values parts separate entries of the source, which are not always exact repeats. Identical values can stand only once.
# Key:
# FL-Hsp70 = biological target: T1, FL-Hsp70 (Homo sapiens, UniProt P0DMV8); assay: Fluorescence titration of dansyl-NR peptide binding; details: 2 µM dansyl-NR peptide, fluorescence ex 330 nm; 50 mM Tris pH 7.4, 150 mM KCl, 5 mM MgCl2; 1 h at 25°C; single-site fit; average of two samples; read-out: Kd (apparent dissociation constant)
# T1 construct: 35% of full-length Hsp70 (FL-Hsp70) exists as oligomeric species; hexa-His (N, cleaved yes); made in house; host or cells: E. coli BL21 (DE3) Gold, pET-28b
# Experimental: (§1) The interaction between the different Hsp70 variants and the NR peptide was studied in 50 mM Tris buffer at pH 7.4, with 150 mM KCl, and 5 mM MgCl2 using fluorescence spectroscopy by titrating different concentrations of chaperone into a solution containing 2 µM dansyl-NR peptide (N-terminally labeled; Genemed Synthesis Inc., San Antonio, TX, USA) after incubating the mixtures for 1 h at 25°C. The concentration of dansyl-NR peptide was calculated using an extinction coefficient at 327 nm of 4300 M^-1.cm^-1 [39]. The fluorescence emission spectrum of each sample was recorded from 400 to 630 nm after excitation at 330 nm, and the data reported correspond to the average intensity at the maximum emission wavelength of two different samples for which ten spectra were recorded. The increase in fluorescence signal was plotted as a function of chaperone concentration (Figure S2), and analyzed assuming single-site binding using the following equation:
# (§2) ΔF=ΔFmaxΘL=ΔFmax/2LT[(PT+LT+Kd)−(PT+LT+Kd)^2−4PTLT] (1)
# (§3) where ΘL is the fraction of bound ligand, ΔF is the increase in fluorescence intensity observed at a given concentration of Hsp70 variant, ΔF max is the increase in fluorescence at saturation, L T and P T are the total ligand and protein concentration respectively, and K d is the apparent dissociation constant of the complex. The fraction of bound ligand was plotted as a function of protein concentration in order to compare affinities between the different chaperone variants.
# SBD556 = biological target: T2, SBD556 (Homo sapiens, UniProt P0DMV8, L542Y); assay: as above
# T2 construct: SBD556 (384-556), which lacks helices C, D and E and the C-terminal disordered region; hexa-His (N, cleaved yes); made in house; host or cells: E. coli BL21 (DE3) Gold, pET-28b
# Experimental: as §1, §2, §3
# SBD641 = biological target: T3, SBD641 (Homo sapiens, UniProt P0DMV8); assay: as above; details: 2 µM dansyl-NR peptide, fluorescence ex 330 nm; 50 mM Tris pH 7.4, 150 mM KCl, 5 mM MgCl2; 1 h at 25°C; single-site fit; average of two samples; read-out: Kd (apparent dissociation constant)
# T3 construct: SBD641 (384-641), corresponding to the full-length SBD; hexa-His (N, cleaved yes); made in house; host or cells: E. coli BL21 (DE3) Gold, pET-28b
# Experimental: as §1, §2, §3
# ΔLSBD641 = biological target: T4, ΔLSBD641 (Homo sapiens, UniProt P0DMV8); assay: as above; details: 2 µM dansyl-NR peptide, fluorescence ex 330 nm; 50 mM Tris pH 7.4, 150 mM KCl, 5 mM MgCl2; 1 h at 25°C; single-site fit; average of two samples; read-out: Kd (apparent dissociation constant)
# T4 construct: ΔLSBD641 (394-641), corresponding to SBD641 without the first ten residues of the interdomain linker; hexa-His (N, cleaved yes); made in house; host or cells: E. coli BL21 (DE3) Gold, pET-28b
# Experimental: as §1, §2, §3
# [1] = previously reported; ref [S3]; cited from earlier work
# Experimental: Supplementary file pone.0067961.s005.tif: Figure S4 Concentration dependency of the analytical SEC chromatograms of the 'C-term' variant. The protein concentrations used were 1µM (black line), 2µM (orange line), 5 µM (pink line), 10 µM (cyan line), 70 µM (red line) and 125 µM (green line). Essentially the same elution profile was found for all the protein concentrations used. At the top the chromatogram the previously reported Stokes radii of the standard proteins used to calibrate the column are reported: conalbumin (40.4 Å), ovalbumin (30.5 Å), carbonic anhydrase (23.6 Å) [S3], ribonuclease ...
# [2] = nESI-MS relative populations of oligomeric forms; assay type: physicochemical, human; details: 6-15 µM protein, 150 mM ammonium acetate, pH 7.4, estimated error 5% (SD of 3-4 independent experiments)
# Experimental: Prior to MS analysis, samples were buffer exchanged into 150 mM ammonium acetate, pH 7.4, using Micro Bio-spin 6 columns (Bio-Rad, Digilab Division, Cambridge, MA, USA). For all the experiments protein concentrations ranging from 6 to 18 µM were used. In the case of the substrate binding experiments, proteins were analyzed in the presence of a 1: 1 molar ratio of the NR peptide; this substrate concentration, lower than in the SEC experiments, was chosen to ensure adequate resolution of the various charge state series, which is critical for unambiguous assignment of substrate-bound states. Due to suppression effects during nESI ionization, a relatively limited set of molar ratios could be investigated by in this way.
# nESI-MS spectra were obtained according to a previously published protocol on an orthogonal time-of-flight mass spectrometer with a Z-spray source (LCT, Waters, Manchester, UK) in positive ion mode using the following parameters: capillary voltage, 1500 V; sample cone voltage, 120 V (unless otherwise specified); extraction cone voltage, 1V; and ion transfer stage pressure, 8.8 mbar. Spectra were calibrated externally using a 33 mg/ml solution of cesium iodide. Data were acquired and processed with MassLynx software (Waters, Manchester, UK), and are shown with minimal smoothing and without background subtraction. The relative abundances of the different oligomeric states were estimated from the intensities of the most abundant charge states for each construct and are expressed as a percentage of the total intensity.
# [3] = Analytical SEC relative populations of oligomeric forms; assay type: physicochemical, human; details: Superdex 75, 4 °C, 50 mM Tris pH 7.4, 150 mM KCl
# Experimental: (§4) Analytical SEC was performed at 4 °C using a Superdex 75 10/300 GL column (GE Healthcare LifeSciences, Little Chalfont, U.K.), which had previously been calibrated using a mixture of standard proteins (Gel Filtration LMW Calibration Kit; GE Healthcare LifeSciences, Little Chalfont, U.K.). Typically, samples of the various constructs contained 70 µM of protein in 50 mM Tris buffer at pH 7.4, with 150 mM KCl, 5 mM MgCl2 and were incubated for 15 min (unless otherwise specified) at room temperature before being loaded onto the column for analysis. To evaluate the reversibility of the oligomerization process, the different elution peaks obtained for each protein variant were subsequently analyzed after concentrating the different fractions using AmiconUltra-0.5, Ultracel-3 Membrane, 3 kDa (Millipore, Bedford, MA, USA). A similar analysis was also performed at 6 µM concentration for all the protein variants to allow for a direct comparison between the results obtained by SEC and MS experiments.
# The influence of substrate binding on the oligomerization properties of all the variants was examined by using the well-characterized Hsp70 substrate, the NR peptide (NRLLLTG, Genemed Synthesis Inc., San Antonio, TX, USA). A 14-fold excess of the peptide was added in each case to a fresh protein sample, incubated for 1 h at room temperature, unless otherwise specified, and then loaded onto the Superdex 75 10/300 GL column for analysis. The relative quantities of the different protein species were estimated by analysing the chromatographic profile using a Gaussian function for each elution peak (OriginPro 8, Originlab, Northampton, MA, USA) and measuring the relative area under each peak.
# [4] = Thermal denaturation monitored by far-UV CD; assay type: physicochemical, human
# Experimental: Protein structural stability was analyzed by monitoring the CD signal at 222 nm upon thermal denaturation. Thermal runs were performed from 5 to 90 °C at a rate of 1 °C. min^-1. Data points were acquired every 0.1 °C with a response time of 2 s and a bandwidth of […]. After thermal denaturation, each protein sample was cooled to the starting temperature, and a second denaturation curve recorded in order to analyse the degree of reversibility of the denaturation process. Analysis of the thermal unfolding curves was performed assuming a three-state unfolding model.
# [5] = Secondary structure content from far-UV CD; assay type: physicochemical, human; details: K2D software; 20 µM protein, 7 mM Tris pH 7.4, 170 mM KCl, 5 mM MgCl2; 25 °C
# Experimental: Far-UV CD spectra for all protein variants were recorded using a Jasco J-810 spectropolarimeter equipped with a Peltier holder, using a 0.1 cm path length cuvette. Typically, samples contained 20 µM protein in 7 mM Tris buffer at pH 7.4, containing 170 mM KCl and 5 mM MgCl2. The far-UV CD spectra of all the variants in their native, thermally denatured and refolded states were recorded from 198 to 250 nm, and the spectrum of the buffer was systematically subtracted from the spectra of all protein samples. The secondary structure content was estimated from the far-UV CD spectrum for each protein variant using K2D software.
# [6] = SEC/DLS of oligomeric species; assay type: physicochemical, human; details: SEC, ΔLSBD641 at the same protein concentration, no NR peptide
# Experimental: as §4, with “A similar analysis was also performed at 6 µM concentration for all the protein variants to allow for a direct comparison between the results obtained by SEC and MS experiments.” left out
# Dynamic light scattering. Representative size distributions of SBD641 at different protein concentrations in Tris 50 mM, pH 7.4, 150 mM KCl, 5 mM MgCl2 were recorded at 25 °C on the Zetasizer Nano ZS instrument (Malvern Instruments Ltd.) at 633 nm after 1 h of incubation at room temperature. […] Some samples were analyzed after 1 h and 4 h incubation at room temperature and the same intensity size distributions were obtained. The samples were centrifuged for 15 min at 13200 rpm to remove dust particles and the scattered light was detected at an angle of 173°. […]
# [7] = 70 µM protein, 5 mM MgCl2, 15 min at room temperature, estimated error 3.5% (SD of 3-4 independent experiments)
# [8] = 6-15 µM protein, 5 mM MgCl2, estimated error 3.5% (SD of 3-4 independent experiments)
# T3 sequence (P0DMV8 384-641): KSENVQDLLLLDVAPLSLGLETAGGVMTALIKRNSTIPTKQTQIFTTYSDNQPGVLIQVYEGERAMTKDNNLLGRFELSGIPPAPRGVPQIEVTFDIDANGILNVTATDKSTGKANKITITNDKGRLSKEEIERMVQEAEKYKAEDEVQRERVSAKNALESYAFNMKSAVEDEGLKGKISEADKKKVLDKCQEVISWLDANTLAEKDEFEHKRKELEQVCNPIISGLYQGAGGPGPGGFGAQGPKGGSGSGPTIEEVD
# T1 sequence (P0DMV8 whole entry): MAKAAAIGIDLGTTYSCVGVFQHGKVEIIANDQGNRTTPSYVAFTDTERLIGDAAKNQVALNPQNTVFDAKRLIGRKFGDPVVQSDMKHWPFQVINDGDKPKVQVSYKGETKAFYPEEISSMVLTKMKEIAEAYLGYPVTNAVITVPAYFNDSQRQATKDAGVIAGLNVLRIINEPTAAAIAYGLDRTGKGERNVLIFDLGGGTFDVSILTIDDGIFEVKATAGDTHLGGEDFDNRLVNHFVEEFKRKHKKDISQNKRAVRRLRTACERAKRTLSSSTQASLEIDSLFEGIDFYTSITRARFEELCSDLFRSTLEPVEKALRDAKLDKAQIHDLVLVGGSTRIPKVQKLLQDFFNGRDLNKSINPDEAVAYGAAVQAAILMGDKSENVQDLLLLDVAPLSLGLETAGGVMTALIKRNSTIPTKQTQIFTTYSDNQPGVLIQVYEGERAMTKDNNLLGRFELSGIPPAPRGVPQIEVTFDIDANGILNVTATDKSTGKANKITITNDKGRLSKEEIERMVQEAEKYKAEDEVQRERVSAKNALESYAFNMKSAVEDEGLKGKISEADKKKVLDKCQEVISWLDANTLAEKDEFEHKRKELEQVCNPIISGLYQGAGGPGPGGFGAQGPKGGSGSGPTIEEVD
# T2 sequence (P0DMV8 384-556 L542Y): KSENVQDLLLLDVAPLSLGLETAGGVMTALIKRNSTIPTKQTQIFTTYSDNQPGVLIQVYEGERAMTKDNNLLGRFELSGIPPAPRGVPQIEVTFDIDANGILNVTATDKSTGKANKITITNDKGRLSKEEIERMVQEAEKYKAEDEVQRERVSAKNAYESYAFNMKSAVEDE
# T4 sequence (P0DMV8 395-641, stated change not applied): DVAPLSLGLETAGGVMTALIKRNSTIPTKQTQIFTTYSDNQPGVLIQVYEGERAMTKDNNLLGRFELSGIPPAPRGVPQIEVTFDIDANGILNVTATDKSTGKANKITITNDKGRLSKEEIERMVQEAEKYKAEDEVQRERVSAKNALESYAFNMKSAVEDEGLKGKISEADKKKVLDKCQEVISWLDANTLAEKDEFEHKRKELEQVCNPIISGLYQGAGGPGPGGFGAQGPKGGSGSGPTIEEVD
molecule,measurement,setting,value
"CC(C)C[C@H](NC(=O)[C@H](CC(C)C)NC(=O)[C@H](CCCNC(=N)N)NC(=O)[C@@H](N)CC(N)=O)C(=O)N[C@@H](CC(C)C)C(=O)N[C@H](C(=O)NCC(=O)O)[C@@H](C)O [NR peptide, NRLLLTG]",Kd,FL-Hsp70,9 µM and 8 to 10 µM
same,Kd,"SBD556; 2 µM dansyl-NR peptide, fluorescence ex 330 nm, 50 mM Tris pH 7.4, 150 mM KCl, 5 mM MgCl2, 1 h at 25°C, single-site fit, average of two samples, read-out: Kd (apparent dissociation constant)",53 ± 16 µM
same,Reduction of fluorescence intensity at saturation (Fmax),"SBD556; fluorescence titration, SBD556 vs other chaperone variants",~25%
same,Kd,SBD641,11 µM and 1 to 10 µM
same,Kd,ΔLSBD641,8 ± 2 µM
carbonic anhydrase [reference compound],Stokes radius of SEC standard protein,[1],23.6 Å
"ΔLSBD641: SBD641 without the first ten residues of the interdomain linker (SENVQDLLLL), residues 394-641",Dimer population,[2],8%
same,Monomer population,[2],> 90%
same,Total oligomer population,[2],8%
same,Trimer population,[2],0%
same,Monomer population,[2]; listed as ∆LSBD641,92%
same,Dimer population,[3]; [7],14%
same,Monomer population,[3]; [7],86%
same,Total oligomer population,[3]; [7],14%
same,Dimer population,[3]; [8],9%
same,Monomer population,[3]; [8],> 90%
same,Total oligomer population,[3]; [8],9%
same,Monomer population,"[3]; 6-15 µM protein, 5 mM MgCl2, estimated error 3.5% (SD of 3-4 independent experiments), listed as ∆LSBD641",91%
same,"∆Hm, 1st transition","[4]; CD 222 nm, 20 µM protein, 7 mM Tris pH 7.4, 170 mM KCl, 5 mM MgCl2, three-state fit (C-term two-state), SE of fit",45.6 ± 2.4 kcal/mol
same,"∆Hm, 2nd transition","[4]; CD 222 nm, 20 µM protein, 7 mM Tris pH 7.4, 170 mM KCl, 5 mM MgCl2, three-state fit, SE of fit",61.0 ± 1.1 kcal/mol
same,"Tm, 1st transition","[4]; CD 222 nm, 5 to 90 °C at 1 °C/min, 20 µM protein, 7 mM Tris pH 7.4, 170 mM KCl, 5 mM MgCl2, three-state fit (C-term two-state), SE of fit",44.9 ± 0.3 °C
same,"Tm, 2nd transition","[4]; CD 222 nm, 5 to 90 °C at 1 °C/min, 20 µM protein, 7 mM Tris pH 7.4, 170 mM KCl, 5 mM MgCl2, three-state fit, SE of fit",72.3 ± 0.1 °C
same,Degree of irreversibility of overall protein thermal denaturation,[4]; far-UV CD,exactly the same behaviour
same,Random-coil content estimated from far-UV CD,[5],47%
same,α-helix content estimated from far-UV CD,[5],35%
same,β-sheet content estimated from far-UV CD,[5],18%
same,Oligomer fraction,[6],ca. 0.1
